Measured values from the supplement of paper PMC6757056.
± gives the standard deviation of the averaged measurements.

B1: library; a variant is named by its letters at N, in order (parent)
chain: GCUGUCACCGAGAAACUGUGAAGUAUAUCUUAAACCUGGGCACUUAAAAGAUAUAUGGAGUUAGUAGUGCAACCUGCUCGGUCUGAUGAGUCCNNNNNNGGACGAAACAGC

Tests used:
[1] = variants of: B1; experiment: FACS-Seq fitted mean relative fluorescence mCherry/BFP without ligand (log10 relative fluorescence); HEK293T; ligand: cyclic di-GMP (c-di-GMP-II aptamer); higher = higher reporter protein expression; conditions: ligand present: no
Method in brief: (§1)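 With or without ligand for 48 h, enriched HEK293T libraries carrying a lentiviral ribozyme-switch mCherry reporter and EF1α-BFP were sorted into 6 mCherry/BFP bins. Bin genomic DNA was amplified by PCR, barcoded and sequenced on MiSeq. Fluorescence was taken from normal fits to the resulting bin counts. Each fitted mean of log10(mCherry/BFP) was scaled to five spiked-in control ribozymes.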

[2] = variants of: B1; experiment: normalized RNA/DNA level without ligand (relative to sTRSVctl = 100) (log10 (% of sTRSVctl)); HEK293T; ligand: cyclic di-GMP (c-di-GMP-II aptamer); higher = less ribozyme self-cleavage, higher mRNA level; conditions: reporter: mCherry (pCS4076), ligand present: no
Method in brief: (§2)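 For each 6-well well, 4 µg of library plasmid encoding mCherry-linked ribozyme switches, or eGFP-linked ones in some ligand experiments, was transfected into HEK293T. Any ligand was added 1 h before transfection, and RNA was extracted with EDTA 72 h after it, then reverse-transcribed, amplified, barcoded and sequenced. RNA level was obtained by dividing RNA reads by DNA reads, normalizing to a spiked-in non-cleaving sequence or to the top sequences, then scaling and log-transforming. The top set was 25 sequences, scaling was ×100 with log10, and ≥100 DNA reads were required.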

[3] = variants of: B1; experiment: FACS-Seq fitted mean relative fluorescence mCherry/BFP with ligand (log10 relative fluorescence); HEK293T; ligand: cyclic di-GMP (c-di-GMP-II aptamer); ligand concentration (+) FACS-Seq: 1 mM; higher = higher reporter protein expression; conditions: ligand present: yes
Method in brief: as §1

[4] = variants of: B1; experiment: normalized RNA/DNA level with ligand (relative to sTRSVctl = 100) (log10 (% of sTRSVctl)); HEK293T; ligand: cyclic di-GMP (c-di-GMP-II aptamer); ligand concentration (+) RNA-Seq: 1 mM; higher = less ribozyme self-cleavage, higher mRNA level; conditions: reporter: mCherry (pCS4076), ligand present: yes
Method in brief: as §2

Variant	FACS-Seq fitted mean (log10) [1]	normalized RNA/DNA level without ligand (log10) [2]	FACS-Seq fitted mean (log10) [3]	normalized RNA/DNA level with ligand (log10) [4]
UUGUUC	-0.6418 ± 0.0047	1.75 ± 0.018	-0.462 ± 0.0095	1.89 ± 0.1
AUUAAA	-0.425 ± 0.11	1.53 ± 0.048	-0.0171 ± 0.053	1.71 ± 0.12
CUUAUA	-0.487 ± 0.096	1.44 ± 0.09	-0.184 ± 0.028	1.65 ± 0.088
CAAACG	–	1.776 ± 0.013	–	1.84 ± 0.059
AUUGCC	-0.0783 ± 0.14	1.776 ± 0.0015	0.207 ± 0.0046	1.92 ± 0.12
AUUUAA	-0.437 ± 0.065	1.58 ± 0.074	-0.0871 ± 0.058	1.75 ± 0.078
CUGAGU	-0.459 ± 0.047	1.7 ± 0.022	-0.264 ± 0.00087	1.83 ± 0.12
CUGAAU	-0.0233 ± 0.075	1.43 ± 0.045	0.269 ± 0.11	1.61 ± 0.075
CUGAAA	-0.638 ± 0.031	1.28 ± 0.097	-0.374 ± 0.059	1.43 ± 0.12
GUGGAC	-0.519 ± 0.08	1.55 ± 0.092	-0.171 ± 0.053	1.75 ± 0.095
GUGGAA	-0.382 ± 0.021	1.4 ± 0.087	-0.0891 ± 0.076	1.63 ± 0.092
GUGGAU	-0.528 ± 0.045	1.52 ± 0.093	-0.192 ± 0.024	1.72 ± 0.072
AUUAGC	-0.0321 ± 0.09	1.6567 ± 0.0015	0.226 ± 0.11	1.76 ± 0.16
GUUAGG	-0.197 ± 0.021	1.56 ± 0.061	0.171 ± 0.057	1.72 ± 0.076
GUUAGA	-0.409 ± 0.02	1.51 ± 0.12	-0.0172 ± 0.12	1.73 ± 0.11
AUUGGA	-0.489 ± 0.028	1.45 ± 0.099	-0.102 ± 0.071	1.62 ± 0.1
AUUGGU	-0.24 ± 0.092	1.58 ± 0.052	0.0192 ± 0.053	1.78 ± 0.14
GUCUUG	-0.245 ± 0.061	1.61 ± 0.052	0.124 ± 0.019	1.77 ± 0.12
